According to US20250236653A1 (ONKO INNATE, published 2025):

T1: human OX40 (human, UniProt P43489 29-277)
T1 construct: whole, on cells; also called hOX40
T1 sequence (looked up): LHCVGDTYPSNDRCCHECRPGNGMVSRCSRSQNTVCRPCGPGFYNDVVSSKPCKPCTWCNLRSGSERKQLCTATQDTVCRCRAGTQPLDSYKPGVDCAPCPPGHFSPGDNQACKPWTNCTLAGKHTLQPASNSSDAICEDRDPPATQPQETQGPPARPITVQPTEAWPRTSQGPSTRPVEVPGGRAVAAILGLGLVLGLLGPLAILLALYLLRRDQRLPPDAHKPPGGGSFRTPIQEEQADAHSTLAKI


Columns and labels:
human IL-12 receptor = human IL-12 receptor (human, UniProt P42701 24-662; Q99665 24-862); experiment: cell-based or functional assay
Chain of human IL-12 receptor (Q99665 24-862 limits assumed, chain 2 of 2, other chains not shown): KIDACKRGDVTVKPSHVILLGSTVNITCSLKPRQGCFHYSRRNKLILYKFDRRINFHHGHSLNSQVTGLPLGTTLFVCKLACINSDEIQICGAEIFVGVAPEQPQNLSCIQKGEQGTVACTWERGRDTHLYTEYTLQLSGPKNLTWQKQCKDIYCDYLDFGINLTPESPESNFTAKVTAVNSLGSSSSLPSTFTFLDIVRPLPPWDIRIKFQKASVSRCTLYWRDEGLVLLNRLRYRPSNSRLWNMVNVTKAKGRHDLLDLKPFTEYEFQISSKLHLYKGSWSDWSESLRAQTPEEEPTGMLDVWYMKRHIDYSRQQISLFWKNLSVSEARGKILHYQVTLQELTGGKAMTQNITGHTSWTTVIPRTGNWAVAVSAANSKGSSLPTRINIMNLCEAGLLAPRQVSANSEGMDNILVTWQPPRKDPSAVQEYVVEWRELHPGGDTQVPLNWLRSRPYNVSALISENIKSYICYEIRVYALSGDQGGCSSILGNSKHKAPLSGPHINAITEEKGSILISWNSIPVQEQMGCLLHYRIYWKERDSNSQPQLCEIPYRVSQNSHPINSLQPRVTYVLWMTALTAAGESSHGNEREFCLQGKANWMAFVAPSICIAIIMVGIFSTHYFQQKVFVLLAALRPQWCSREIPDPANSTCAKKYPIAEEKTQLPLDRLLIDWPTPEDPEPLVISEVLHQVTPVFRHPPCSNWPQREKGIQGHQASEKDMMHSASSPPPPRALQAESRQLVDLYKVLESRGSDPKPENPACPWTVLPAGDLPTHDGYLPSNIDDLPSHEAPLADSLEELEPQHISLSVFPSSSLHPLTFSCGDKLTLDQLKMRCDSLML

human OX40 = target: T1, human OX40; experiment: flow cytometry on hOX40-Jurkat-NF-κB cells
Procedure: Stained hOX40-Jurkat-NF-κB and cOX40-Jurkat-NF-κB cells were analyzed by flow cytometry using a CytoFLEX (Beckman Coulter), the results of which are depicted in FIGS. 78 and 79, respectively, and summarized in FIG. 80.
Binding of each of the sequence optimized IL-12 ABD fusion proteins to hOX40-Jurkat-NF-κB cells was performed as described in Example 16, the results of which are depicted in FIG. 87 and summarized in FIG. 88.

Row | Binder | EC50 (human OX40) [nM] | SEAP of CCR8-HEK-Blue IL-12 reporter cells (OD 650 nm), EC50 (human IL-12 receptor) [nM] | other results
1 | commercially available recombinant mouse IL-12 (rmIL-12, BioLegend) (ligand) chain 1: RVIPVSGPARCLSQSRNLLKTTDDMVKTAREKLKHYSCTAEDIDHEDITRDQTSTLKTCLPLELHKNESCLATRETSSTTRGSCLPPQKTSLMMTLCLGSIYEDLKMYQTEFQAINAALQNHNHQQIILDKGMLVAIDELMQSLNHNGETLRQKPPVGEADPYRVKMKLCILLHAFSTRVVTINRVMGYLSSA chain 2: MWELEKDVYVVEVDWTPDAPGETVNLTCDTPEEDDITWTSDQRHGVIGSGKTLTITVKEFLDAGQYTCHKGGETLSHSHLLLHKKENGIWSTEILKNFKNKTFLKCEAPNYSGRFTCSWLVQRNMDLKFNIKSSSSSPDSRAVTCGMASLSAEKVTLDQRDYEKYSVSCQEDVTCPTAEETLPIELALEARQQNKYENYSTSFFIRDIIKPDPPKNLQMKPLKNSQVEVSWEYPDSWSTPHSYFSLKFFVRIQRKKEKMKETEEGCNQKGAFLVEKTSTEVQCKGGNVCVQAQDRYYNSSCSKWACVPCRVRS |  |  | IFNγ in the supernatant of activated/expanded human T cells (AlphaLISA), EC50 (human IL-12 receptor): 0.0193 nM
2 | mono-mut23-20E5_V5 (Fc fusion) IWELKKDVYVVELDWYPDAPGEMVVLTCDTPEEDGITWTLDQSSEVLGSGKTLTIQVKEFGDAGQYTCHKGGEVLSHSLLLLHKKEDGIWSTDILKDQKEPKNKTFLRCEAKNYSGRFTCWWLTTISTDLTFSVKSSRGSSDPQGVTCGAATLSAERVRGDNKEYEYSVECQEDSACPAAEESLPIEVMVDAVHKLKYENYTSSFFIRDIIKPDPPKNLQLKPLKNSRQVEVSWEYPDTWSTPHSYFSLTFSVQVQGKSKREKKDRVFTDKTSATVICRKNASISVRAQDRYYSSSWSEWASVPCSGGGGSGGGGSGGGGSGGGGSGGGGSRNLPVATPDPGMFPCLHHSQNLLRAVSNMLQKARQTLEFSPCTSEEIDHEDITKDKTSTVEACLPLELTKNESCLNSRETSFITNGSCLASRKTSFMMALCLSSIYEDLKMYQVEFKTMNAKLLMDPKRQIFLDQNMLAVIDELMQALNFNSETVPQKSSLEEPDFYKTAIKLCILLHAFRIRAVTIDRVMSYLNASGGGGSGGGGSEPKSSDKTHTCPPCPAPEFEGGPSVFLFPPKPKDTLMISRTPEVTCVVVDVSHEDPEVKFNWYVDGVEVHNAKTKPREEQYNSTYRVVSVLTVLHQDWLNGKEYKCKVSNKALPASIEKTISKAKGQPREPQVCTLPPSRDELTKNQVSLSCAVKGFYPSDIAVEWESNGQPENNYKTTPPVLDSDGSFFLVSKLTVDKSRWQQGNVFSCSVMHEALHNHYTQKSLSLSPG heavy: QVQLVQSGAEVKKPGASVKVSCKASGYTFTSYVMHWVRQAPGQRLEWIGYINPYNAGTKYNEKFKGRATLTSDKSASTAYMELSSLRSEDTAVYYCANYYGSSLSMDYWGQGTLVTVSSASTKGPSVFPLAPSSKSTSGGTAALGCLVKDYFPEPVTVSWNSGALTSGVHTFPAVLQSSGLYSLSSVVTVPSSSLGTQTYICNVNHKPSNTKVDKKVEPKSCDKTHTCPPCPAPEFEGGPSVFLFPPKPKDTLMISRTPEVTCVVVDVSHEDPEVKFNWYVDGVEVHNAKTKPREEQYNSTYRVVSVLTVLHQDWLNGKEYKCKVSNKALPASIEKTISKAKGQPREPQVYTLPPCRDELTKNQVSLWCLVKGFYPSDIAVEWESNGQPENNYKTTPPVLDSDGSFFLYSKLTVDKSRWQQGNVFSCSVMHEALHNHYTQKSLSLSPG light: not shown |  |  | binding result (human OX40): binds
3 | mono-mut23-12H3_V5 (Fc fusion) IWELKKDVYVVELDWYPDAPGEMVVLTCDTPEEDGITWTLDQSSEVLGSGKTLTIQVKEFGDAGQYTCHKGGEVLSHSLLLLHKKEDGIWSTDILKDQKEPKNKTFLRCEAKNYSGRFTCWWLTTISTDLTFSVKSSRGSSDPQGVTCGAATLSAERVRGDNKEYEYSVECQEDSACPAAEESLPIEVMVDAVHKLKYENYTSSFFIRDIIKPDPPKNLQLKPLKNSRQVEVSWEYPDTWSTPHSYFSLTFSVQVQGKSKREKKDRVFTDKTSATVICRKNASISVRAQDRYYSSSWSEWASVPCSGGGGSGGGGSGGGGSGGGGSGGGGSRNLPVATPDPGMFPCLHHSQNLLRAVSNMLQKARQTLEFSPCTSEEIDHEDITKDKTSTVEACLPLELTKNESCLNSRETSFITNGSCLASRKTSFMMALCLSSIYEDLKMYQVEFKTMNAKLLMDPKRQIFLDQNMLAVIDELMQALNFNSETVPQKSSLEEPDFYKTAIKLCILLHAFRIRAVTIDRVMSYLNASGGGGSGGGGSEPKSSDKTHTCPPCPAPEFEGGPSVFLFPPKPKDTLMISRTPEVTCVVVDVSHEDPEVKFNWYVDGVEVHNAKTKPREEQYNSTYRVVSVLTVLHQDWLNGKEYKCKVSNKALPASIEKTISKAKGQPREPQVCTLPPSRDELTKNQVSLSCAVKGFYPSDIAVEWESNGQPENNYKTTPPVLDSDGSFFLVSKLTVDKSRWQQGNVFSCSVMHEALHNHYTQKSLSLSPG heavy: QVQLVQSGAEVKKPGSSVKVSCKASGYTFKDYTMHWVRQAPGQGLEWIGGIYPNNAGSTYNQNFKDRVTLTADKSTSTAYMELSSLRSEDTAVYYCARMGYHGPHLDFDVWGQGTTVTVSSASTKGPSVFPLAPSSKSTSGGTAALGCLVKDYFPEPVTVSWNSGALTSGVHTFPAVLQSSGLYSLSSVVTVPSSSLGTQTYICNVNHKPSNTKVDKKVEPKSCDKTHTCPPCPAPEFEGGPSVFLFPPKPKDTLMISRTPEVTCVVVDVSHEDPEVKFNWYVDGVEVHNAKTKPREEQYNSTYRVVSVLTVLHQDWLNGKEYKCKVSNKALPASIEKTISKAKGQPREPQVYTLPPCRDELTKNQVSLWCLVKGFYPSDIAVEWESNGQPENNYKTTPPVLDSDGSFFLYSKLTVDKSRWQQGNVFSCSVMHEALHNHYTQKSLSLSPG light: DIQMTQSPSSLSASVGDRVTITCKASQDVGAAVAWYQQKPGKAPKLLIYWASTRHTGVPSRFSGSGSGTDFTLTISSLQPEDFATYYCQQYINYPLTFGGGTKVEIKRTVAAPSVFIFPPSDEQLKSGTASVVCLLNNFYPREAKVQWKVDNALQSGNSQESVTEQDSKDSTYSLSSTLTLSKADYEKHKVYACEVTHQGLSSPVTKSFNRGEC | 113 |  | 
4 | mono-mut23-12H3_V6 (Fc fusion) IWELKKDVYVVELDWYPDAPGEMVVLTCDTPEEDGITWTLDQSSEVLGSGKTLTIQVKEFGDAGQYTCHKGGEVLSHSLLLLHKKEDGIWSTDILKDQKEPKNKTFLRCEAKNYSGRFTCWWLTTISTDLTFSVKSSRGSSDPQGVTCGAATLSAERVRGDNKEYEYSVECQEDSACPAAEESLPIEVMVDAVHKLKYENYTSSFFIRDIIKPDPPKNLQLKPLKNSRQVEVSWEYPDTWSTPHSYFSLTFSVQVQGKSKREKKDRVFTDKTSATVICRKNASISVRAQDRYYSSSWSEWASVPCSGGGGSGGGGSGGGGSGGGGSGGGGSRNLPVATPDPGMFPCLHHSQNLLRAVSNMLQKARQTLEFSPCTSEEIDHEDITKDKTSTVEACLPLELTKNESCLNSRETSFITNGSCLASRKTSFMMALCLSSIYEDLKMYQVEFKTMNAKLLMDPKRQIFLDQNMLAVIDELMQALNFNSETVPQKSSLEEPDFYKTAIKLCILLHAFRIRAVTIDRVMSYLNASGGGGSGGGGSEPKSSDKTHTCPPCPAPEFEGGPSVFLFPPKPKDTLMISRTPEVTCVVVDVSHEDPEVKFNWYVDGVEVHNAKTKPREEQYNSTYRVVSVLTVLHQDWLNGKEYKCKVSNKALPASIEKTISKAKGQPREPQVCTLPPSRDELTKNQVSLSCAVKGFYPSDIAVEWESNGQPENNYKTTPPVLDSDGSFFLVSKLTVDKSRWQQGNVFSCSVMHEALHNHYTQKSLSLSPG heavy: QVQLVQSGAEVKKPGSSVKVSCKASGYTFKDYTMHWVRQAPGQGLEWIGGIYPNNGGSTYNQNFKDRVTLTADKSTSTAYMELSSLRSEDTAVYYCARLGYHGPHLDFDVWGQGTTVTVSSASTKGPSVFPLAPSSKSTSGGTAALGCLVKDYFPEPVTVSWNSGALTSGVHTFPAVLQSSGLYSLSSVVTVPSSSLGTQTYICNVNHKPSNTKVDKKVEPKSCDKTHTCPPCPAPEFEGGPSVFLFPPKPKDTLMISRTPEVTCVVVDVSHEDPEVKFNWYVDGVEVHNAKTKPREEQYNSTYRVVSVLTVLHQDWLNGKEYKCKVSNKALPASIEKTISKAKGQPREPQVYTLPPCRDELTKNQVSLWCLVKGFYPSDIAVEWESNGQPENNYKTTPPVLDSDGSFFLYSKLTVDKSRWQQGNVFSCSVMHEALHNHYTQKSLSLSPG light: DIQMTQSPSSLSASVGDRVTITCKASQDVGAAVAWYQQKPGKAPKLLIYWASTRHTGVPSRFSGSGSGTDFTLTISSLQPEDFATYYCQQYINYPLTFGGGTKVEIKRTVAAPSVFIFPPSDEQLKSGTASVVCLLNNFYPREAKVQWKVDNALQSGNSQESVTEQDSKDSTYSLSSTLTLSKADYEKHKVYACEVTHQGLSSPVTKSFNRGEC | 645 |  | 
5 | IL-12 Fc mut9 (Fc fusion) RNLPVATPDPGMFPCLHHSQNLLRAVSNMLQKARQTLEFPPCTSEEIDHEDITKDKTSTVEACLPLELTKNESCLNSRETSFITNGSCLASRKTSFMMALCLSSIYEDLKMYQVEFKTMNAKLLMDPKRQIFLDQNMLAVIDELMQALNFNSETVPQKSSLEEPDFYATKIKLCILLHAFRIRAVTIDRVMSYLNAS |  | 12.5 | 
6 | commercially available recombinant IL-12 (rIL-12, Miltenyi) (ligand) chain 1: RNLPVATPDPGMFPCLHHSQNLLRAVSNMLQKARQTLEFYPCTSEEIDHEDITKDKTSTVEACLPLELTKNESCLNSRETSFITNGSCLASRKTSFMMALCLSSIYEDLKMYQVEFKTMNAKLLMDPKRQIFLDQNMLAVIDELMQALNFNSETVPQKSSLEEPDFYKTKIKLCILLHAFRIRAVTIDRVMSYLNAS chain 2: IWELKKDVYVVELDWYPDAPGEMVVLTCDTPEEDGITWTLDQSSEVLGSGKTLTIQVKEFGDAGQYTCHKGGEVLSHSLLLLHKKEDGIWSTDILKDQKEPKNKTFLRCEAKNYSGRFTCWWLTTISTDLTFSVKSSRGSSDPQGVTCGAATLSAERVRGDNKEYEYSVECQEDSACPAAEESLPIEVMVDAVHKLKYENYTSSFFIRDIIKPDPPKNLQLKPLKNSRQVEVSWEYPDTWSTPHSYFSLTFCVQVQGKSKREKKDRVFTDKTSATVICRKNASISVRAQDRYYSSSWSEWASVPCS |  | 0.17 | 
